For experiment [1], the target named is T1, HRS (Histidyl-tRNA synthetase), purified recombinant antigen (human, UniProt P12081 1-509, limits assumed).
T1 construct: It was immobilised on the GLC chip (SPR), coupled to Luminex beads and used as the ELISA standard; also called HRS 항원; 재조합 HRS 표준물질
T1 sequence (looked up): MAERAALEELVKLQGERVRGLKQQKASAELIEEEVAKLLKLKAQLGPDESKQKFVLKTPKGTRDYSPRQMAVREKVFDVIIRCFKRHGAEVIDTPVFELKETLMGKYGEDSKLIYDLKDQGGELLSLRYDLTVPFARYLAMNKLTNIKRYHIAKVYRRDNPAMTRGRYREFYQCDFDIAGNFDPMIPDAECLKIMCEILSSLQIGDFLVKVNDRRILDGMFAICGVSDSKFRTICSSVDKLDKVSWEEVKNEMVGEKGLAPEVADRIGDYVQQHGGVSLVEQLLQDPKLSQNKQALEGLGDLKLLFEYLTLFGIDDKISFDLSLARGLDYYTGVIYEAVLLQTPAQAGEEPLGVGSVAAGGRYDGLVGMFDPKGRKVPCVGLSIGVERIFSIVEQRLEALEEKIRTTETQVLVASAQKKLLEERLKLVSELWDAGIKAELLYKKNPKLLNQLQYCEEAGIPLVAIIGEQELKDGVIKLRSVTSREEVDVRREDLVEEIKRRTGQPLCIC
The experiment in a line: SPR (ProteOn XPR36), HRS amine-coupled on GLC chip, purified scFv 500-30 nM injected, 25 C.

For experiment [2], the target named is T2, YRS (Tyrosyl-tRNA synthetase), purified recombinant (UniProt P54577 1-528, limits assumed).
T2 construct: also called 타이로실-tRNA 합성효소
T2 sequence (looked up): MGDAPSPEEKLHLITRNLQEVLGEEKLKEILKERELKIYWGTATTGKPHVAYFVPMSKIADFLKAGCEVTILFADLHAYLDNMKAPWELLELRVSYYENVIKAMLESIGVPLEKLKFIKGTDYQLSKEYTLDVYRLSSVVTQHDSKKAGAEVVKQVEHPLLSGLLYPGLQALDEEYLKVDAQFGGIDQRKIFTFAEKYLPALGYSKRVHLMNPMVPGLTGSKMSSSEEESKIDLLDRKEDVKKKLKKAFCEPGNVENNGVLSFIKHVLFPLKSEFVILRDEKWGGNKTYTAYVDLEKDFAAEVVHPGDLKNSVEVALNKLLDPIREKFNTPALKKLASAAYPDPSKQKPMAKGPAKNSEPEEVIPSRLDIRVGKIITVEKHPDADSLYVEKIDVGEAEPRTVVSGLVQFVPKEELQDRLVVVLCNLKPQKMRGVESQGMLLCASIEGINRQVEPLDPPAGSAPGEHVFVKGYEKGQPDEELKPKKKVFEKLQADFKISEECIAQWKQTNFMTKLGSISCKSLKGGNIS
The experiment in a line: Luminex multiplex bead assay, anti-HA-biotin / SA-PE detection.

The target of experiment [3] is T3, WRS (Tryptophanyl-tRNA synthetase), purified recombinant (UniProt P23381 1-471, limits assumed).
T3 construct: also called 트립토파닐-tRNA 합성효소
T3 sequence (looked up): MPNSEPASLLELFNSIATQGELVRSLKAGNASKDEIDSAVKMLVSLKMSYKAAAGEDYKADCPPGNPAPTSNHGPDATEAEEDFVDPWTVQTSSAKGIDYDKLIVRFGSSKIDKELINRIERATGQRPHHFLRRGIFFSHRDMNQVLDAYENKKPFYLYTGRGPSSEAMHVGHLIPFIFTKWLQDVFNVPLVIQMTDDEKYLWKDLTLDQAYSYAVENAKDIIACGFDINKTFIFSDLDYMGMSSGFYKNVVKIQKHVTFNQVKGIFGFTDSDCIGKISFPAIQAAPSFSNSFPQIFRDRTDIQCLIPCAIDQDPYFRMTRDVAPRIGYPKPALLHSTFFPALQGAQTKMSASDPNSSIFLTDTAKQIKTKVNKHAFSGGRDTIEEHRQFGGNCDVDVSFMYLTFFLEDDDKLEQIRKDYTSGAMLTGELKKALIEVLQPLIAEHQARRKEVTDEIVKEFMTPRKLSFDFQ
Described as above.

The target in experiment [4] is T4, AIMP1 (Aminoacyl-tRNA-synthetase-interacting multifunctional protein 1), purified recombinant (UniProt Q12904 1-312, limits assumed).
T4 construct: also called AIMP1(p43); p43
T4 sequence (looked up): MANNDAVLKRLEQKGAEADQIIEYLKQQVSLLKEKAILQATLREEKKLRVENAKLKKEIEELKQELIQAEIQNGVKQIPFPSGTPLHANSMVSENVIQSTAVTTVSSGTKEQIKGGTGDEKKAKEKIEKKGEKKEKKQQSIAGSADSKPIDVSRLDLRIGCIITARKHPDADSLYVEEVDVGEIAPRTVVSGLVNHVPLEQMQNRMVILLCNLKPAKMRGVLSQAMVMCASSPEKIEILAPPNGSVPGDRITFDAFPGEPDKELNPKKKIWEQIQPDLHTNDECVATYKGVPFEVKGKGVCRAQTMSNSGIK
The experiment is described as above.

The target of experiment [5] is T5, SRS (Seryl-tRNA synthetase), purified recombinant (UniProt P49591 1-514, limits assumed).
T5 construct: also called 세릴-tRNA 합성효소
T5 sequence (P49591 whole entry): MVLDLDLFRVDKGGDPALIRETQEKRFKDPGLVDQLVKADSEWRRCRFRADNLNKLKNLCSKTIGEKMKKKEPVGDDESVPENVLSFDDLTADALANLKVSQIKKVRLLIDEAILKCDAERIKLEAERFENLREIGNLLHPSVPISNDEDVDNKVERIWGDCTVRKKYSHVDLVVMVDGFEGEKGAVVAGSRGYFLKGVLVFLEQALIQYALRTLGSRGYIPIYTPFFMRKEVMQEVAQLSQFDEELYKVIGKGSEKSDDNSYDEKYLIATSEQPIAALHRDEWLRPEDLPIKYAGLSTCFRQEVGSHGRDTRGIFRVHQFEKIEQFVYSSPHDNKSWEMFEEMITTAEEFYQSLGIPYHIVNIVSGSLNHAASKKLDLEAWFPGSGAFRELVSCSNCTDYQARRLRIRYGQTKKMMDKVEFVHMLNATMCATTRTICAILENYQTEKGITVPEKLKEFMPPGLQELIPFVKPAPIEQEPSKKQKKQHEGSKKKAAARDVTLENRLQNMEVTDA
The experiment is described as above.

In experiment [6] the target is T6, GRS (Glycyl-tRNA synthetase), purified recombinant (UniProt P41250 55-739, limits assumed).
T6 construct: also called 글리실-tRNA 합성효소
T6 sequence (looked up): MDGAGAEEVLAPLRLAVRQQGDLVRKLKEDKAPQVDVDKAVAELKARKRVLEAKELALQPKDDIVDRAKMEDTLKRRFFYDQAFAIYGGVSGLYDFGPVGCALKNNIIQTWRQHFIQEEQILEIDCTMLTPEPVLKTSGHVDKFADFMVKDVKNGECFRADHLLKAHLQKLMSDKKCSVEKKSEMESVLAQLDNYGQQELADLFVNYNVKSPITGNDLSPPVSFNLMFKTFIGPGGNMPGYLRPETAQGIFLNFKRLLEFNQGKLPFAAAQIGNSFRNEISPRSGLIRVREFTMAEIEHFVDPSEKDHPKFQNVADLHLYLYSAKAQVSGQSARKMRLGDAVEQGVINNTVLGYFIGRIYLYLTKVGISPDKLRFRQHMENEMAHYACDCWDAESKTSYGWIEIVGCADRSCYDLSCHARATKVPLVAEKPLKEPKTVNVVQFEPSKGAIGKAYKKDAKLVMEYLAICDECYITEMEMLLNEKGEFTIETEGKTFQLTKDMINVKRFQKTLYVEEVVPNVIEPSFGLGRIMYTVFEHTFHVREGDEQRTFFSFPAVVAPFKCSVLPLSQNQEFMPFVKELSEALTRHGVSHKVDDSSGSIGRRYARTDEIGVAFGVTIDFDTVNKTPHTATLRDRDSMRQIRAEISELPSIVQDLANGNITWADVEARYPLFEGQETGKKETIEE
Described as above.

The target of experiment [7] is T7, KRS (Lysyl-tRNA synthetase), purified recombinant (UniProt Q15046 1-597, limits assumed).
T7 construct: also called 리실-tRNA 합성효소
T7 sequence (Q15046 whole entry): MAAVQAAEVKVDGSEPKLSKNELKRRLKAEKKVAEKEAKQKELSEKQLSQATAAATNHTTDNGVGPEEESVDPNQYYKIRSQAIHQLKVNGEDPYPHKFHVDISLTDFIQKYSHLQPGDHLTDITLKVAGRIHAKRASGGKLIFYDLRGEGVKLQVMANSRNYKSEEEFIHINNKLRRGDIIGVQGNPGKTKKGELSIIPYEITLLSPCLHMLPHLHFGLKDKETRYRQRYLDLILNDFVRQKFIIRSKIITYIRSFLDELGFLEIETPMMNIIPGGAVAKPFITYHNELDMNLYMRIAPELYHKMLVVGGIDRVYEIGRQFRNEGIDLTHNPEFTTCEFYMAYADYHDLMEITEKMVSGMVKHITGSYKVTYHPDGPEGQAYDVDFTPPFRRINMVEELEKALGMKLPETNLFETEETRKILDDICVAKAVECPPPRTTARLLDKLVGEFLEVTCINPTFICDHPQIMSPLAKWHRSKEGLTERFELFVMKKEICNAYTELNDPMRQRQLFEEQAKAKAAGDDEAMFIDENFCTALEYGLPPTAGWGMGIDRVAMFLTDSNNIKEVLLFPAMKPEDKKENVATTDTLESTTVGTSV
The experiment is described as above.

Experiment [8] addresses T8, NRS (Asparaginyl-tRNA synthetase), purified recombinant (UniProt O43776 1-548, limits assumed).
T8 construct: also called 아스파라기닐딜-tRNA 합성효소
T8 sequence (looked up): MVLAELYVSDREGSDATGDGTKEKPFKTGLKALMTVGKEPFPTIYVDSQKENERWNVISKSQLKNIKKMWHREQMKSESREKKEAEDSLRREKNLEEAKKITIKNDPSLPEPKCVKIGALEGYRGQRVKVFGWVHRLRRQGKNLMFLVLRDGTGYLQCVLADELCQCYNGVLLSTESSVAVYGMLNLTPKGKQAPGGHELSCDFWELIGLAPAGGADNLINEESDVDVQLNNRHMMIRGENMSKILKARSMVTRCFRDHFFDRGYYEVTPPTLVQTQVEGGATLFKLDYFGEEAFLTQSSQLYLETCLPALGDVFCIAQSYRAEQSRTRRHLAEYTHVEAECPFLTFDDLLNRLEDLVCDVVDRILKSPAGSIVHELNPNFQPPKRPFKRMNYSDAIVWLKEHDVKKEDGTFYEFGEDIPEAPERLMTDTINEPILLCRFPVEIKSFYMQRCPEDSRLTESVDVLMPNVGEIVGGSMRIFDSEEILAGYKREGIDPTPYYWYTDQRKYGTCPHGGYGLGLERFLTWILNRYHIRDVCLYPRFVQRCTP
The experiment is described as above.

B1: anti-HRS scFv Biocon-H1 (scFv)
scFv: EVQLLESGGGLVQPGGSLRLSCAASGFTFSGYYMSWVRQAPGKGLEWVSLISHGGGNIYYADSVKGRFTISRDNSKNTLYLQMNSLRAEDTAVYYCARFPLEFDYWGQGTLVTVSSGGGGSGGGGSGGGGSQSVLTQPPSASGTPGQRVTISCTGSSSNIGSNAVSWYQQLPGTAPKLLIYDDNKRPSGVLDRFSGSKSGTSASLAISGLRSEDEADYYCGTWDDSLSGYVFGGGTKLTVL
notes: Single clone from a human VH3-23/VL1g phage scFv library, expressed in E. coli periplasm; Periplasmic extract was used in the western blot and Luminex assay, Ni-NTA-purified scFv in SPR and ELISA; also called 항 HRS scFv 항체; 본 발명의 항체; not shown: tags from the pComb3X vector (purified on Ni-NTA, detected with anti-HA)
As a reminder, the Kd is the equilibrium constant for the complex coming apart. As for B1, the Kd in experiment [1] was found to be 70 nM. Moreover, the binding result in experiment [2], in experiment [3], in experiment [4], in experiment [5], in experiment [6] and in experiment [7] was “no binding” each time. The binding result in experiment [8] is “no binding”.

(Values after KR20150077770A (dated 2015).)
